Assays:
[1] = target: T1, CD22 (Acro Biosystems, Cat #CD2-H52H8) (UniProt P20273 20-687); test: BLI, IgG on anti-human Fc sensor, 50 nM CD22
T1 construct: soluble analyte, 50 nM in BLI; also called Acro Biosystems antigen
T1 sequence (looked up): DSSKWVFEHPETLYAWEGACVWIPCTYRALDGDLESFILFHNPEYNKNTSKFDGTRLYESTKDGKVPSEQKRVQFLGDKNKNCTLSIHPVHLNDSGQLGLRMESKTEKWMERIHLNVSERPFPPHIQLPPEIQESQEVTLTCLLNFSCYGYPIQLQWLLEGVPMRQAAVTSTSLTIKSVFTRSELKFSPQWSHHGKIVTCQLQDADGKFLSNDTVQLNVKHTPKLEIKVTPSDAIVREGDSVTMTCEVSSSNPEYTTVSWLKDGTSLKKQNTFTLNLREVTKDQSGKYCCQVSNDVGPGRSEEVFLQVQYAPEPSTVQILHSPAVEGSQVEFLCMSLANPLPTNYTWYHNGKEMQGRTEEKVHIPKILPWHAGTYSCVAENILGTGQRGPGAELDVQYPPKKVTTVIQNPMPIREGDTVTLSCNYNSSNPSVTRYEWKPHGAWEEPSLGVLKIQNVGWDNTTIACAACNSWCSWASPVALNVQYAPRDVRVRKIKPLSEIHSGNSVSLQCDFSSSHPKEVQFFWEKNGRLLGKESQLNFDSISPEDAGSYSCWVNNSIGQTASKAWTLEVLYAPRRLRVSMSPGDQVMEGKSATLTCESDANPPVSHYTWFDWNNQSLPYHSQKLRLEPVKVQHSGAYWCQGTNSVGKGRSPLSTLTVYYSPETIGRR

[2] = target: T2, CD22 Protein (His Tag), Sino Biological Cat. No. 11958-H08H (UniProt P20273 20-687); test: BLI, IgG on anti-human Fc sensor, 50 nM CD22
T2 construct: soluble analyte, 50 nM in BLI; also called Sino Biological antigen
T2 sequence (looked up): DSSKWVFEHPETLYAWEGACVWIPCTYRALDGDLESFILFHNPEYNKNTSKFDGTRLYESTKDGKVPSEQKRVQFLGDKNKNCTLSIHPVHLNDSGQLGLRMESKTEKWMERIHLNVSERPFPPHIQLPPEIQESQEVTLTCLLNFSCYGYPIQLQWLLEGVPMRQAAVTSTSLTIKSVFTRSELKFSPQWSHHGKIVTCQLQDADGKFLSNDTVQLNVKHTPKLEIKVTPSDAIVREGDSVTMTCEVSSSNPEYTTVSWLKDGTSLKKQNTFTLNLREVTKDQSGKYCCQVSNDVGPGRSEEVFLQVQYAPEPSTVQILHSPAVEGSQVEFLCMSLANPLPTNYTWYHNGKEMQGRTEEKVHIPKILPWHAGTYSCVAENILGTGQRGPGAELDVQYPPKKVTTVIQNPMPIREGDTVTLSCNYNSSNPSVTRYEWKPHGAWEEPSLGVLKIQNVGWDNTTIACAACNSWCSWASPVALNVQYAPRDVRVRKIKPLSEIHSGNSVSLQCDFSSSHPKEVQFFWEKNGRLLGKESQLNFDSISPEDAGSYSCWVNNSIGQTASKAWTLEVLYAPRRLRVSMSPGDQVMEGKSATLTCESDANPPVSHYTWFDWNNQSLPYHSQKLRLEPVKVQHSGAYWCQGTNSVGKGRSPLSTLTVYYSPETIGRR

binding result [1]: binds
binding result [2]: binds
B1: MYT0526 (antibody, V domains shown)
VH: EVQLVQSGAEVKKPGASVKVSCKASGYRFTNYHIHWVRQAPGQGLEWIGGINPGNNYATYRRKFQGRVTMTADTSTSTVYMELSSLRSEDTAVYYCTREGYGNYGAWFAYWGQGTLVTVSS
VL: DVQVTQSPSSLSASVGDRVTITCRSSQSLANSYGNTFLSWYLHKPGKAPQLLIYGISNRFSGVPDRFSGSGSGTDFTLTISSLQPEDFATYYCLQGTHQPYTFGQGTKVEIK
notes: inotuzumab VH W33H; tie by order
